Results from publication PMC12221289.
pKd: −log10 of the molar value.

Columns and labels:
Experiment in all cases: DRaCALA
[1] = test system: Rcu mt-EF-Tu1 (Romanomermis culicivorax); conditions: 3'-aminoacylated with Phe (flexizyme); DRaCALA of EF-Tu:GTP:Phe-tRNA ternary complexes, 2 ul spotted on nitrocellulose, n>=3; binding buffer, pH and temperature not in the material
[2] = test system: Rcu mt-EF-Tu1 ΔC3 (Romanomermis culicivorax); conditions: 3'-aminoacylated with Phe (flexizyme); DRaCALA of EF-Tu:GTP:Phe-tRNA ternary complexes, 2 ul spotted on nitrocellulose, n>=3; binding buffer, pH and temperature not in the material
[3] = test system: Rcu mt-EF-Tu1 ΔC50 (Romanomermis culicivorax); conditions: 3'-aminoacylated with Phe (flexizyme); DRaCALA of EF-Tu:GTP:Phe-tRNA ternary complexes, 2 ul spotted on nitrocellulose, n>=3; binding buffer, pH and temperature not in the material
[4] = test system: Cel mt-EF-Tu1 K386D (Caenorhabditis elegans); conditions: 3'-aminoacylated with Phe (flexizyme); DRaCALA of EF-Tu:GTP:Phe-tRNA ternary complexes, 2 ul spotted on nitrocellulose, n>=3; binding buffer, pH and temperature not in the material
[5] = test system: Rcu mt-EF-Tu1 K380D/ΔC50 (Romanomermis culicivorax); conditions: GTP; apparent Kd; 3'-aminoacylated with Phe (flexizyme); DRaCALA of EF-Tu:GTP:Phe-tRNA ternary complexes, 2 ul spotted on nitrocellulose, n>=3; binding buffer, pH and temperature not in the material
[6] = test system: Rcu mt-EF-Tu1 ΔC15 (Romanomermis culicivorax); conditions: GTP; apparent Kd; 3'-aminoacylated with Phe (flexizyme); DRaCALA of EF-Tu:GTP:Phe-tRNA ternary complexes, 2 ul spotted on nitrocellulose, n>=3; binding buffer, pH and temperature not in the material
[7] = test system: Rcu mt-EF-Tu1 K380D (Romanomermis culicivorax); conditions: 3'-aminoacylated with Phe (flexizyme); DRaCALA of EF-Tu:GTP:Phe-tRNA ternary complexes, 2 ul spotted on nitrocellulose, n>=3; binding buffer, pH and temperature not in the material
[8] = test system: Cel mt-EF-Tu1 (Caenorhabditis elegans); conditions: 3'-aminoacylated with Phe (flexizyme); DRaCALA of EF-Tu:GTP:Phe-tRNA ternary complexes, 2 ul spotted on nitrocellulose, n>=3; binding buffer, pH and temperature not in the material
[9] = test system: Rcu mt-EF-Tu1 K380E (Romanomermis culicivorax); conditions: 3'-aminoacylated with Phe (flexizyme); DRaCALA of EF-Tu:GTP:Phe-tRNA ternary complexes, 2 ul spotted on nitrocellulose, n>=3; binding buffer, pH and temperature not in the material
[10] = target: Bta mt-EF-Tu D384A D384A (Bos taurus) (UniProt P49410); conditions: 3'-aminoacylated with Phe (flexizyme); DRaCALA of EF-Tu:GTP:Phe-tRNA ternary complexes, 2 ul spotted on nitrocellulose, n>=3; binding buffer, pH and temperature not in the material
[11] = test system: Rcu mt-EF-Tu1 region F chimera (Romanomermis culicivorax); conditions: 3'-aminoacylated with Phe (flexizyme); DRaCALA of EF-Tu:GTP:Phe-tRNA ternary complexes, 2 ul spotted on nitrocellulose, n>=3; binding buffer, pH and temperature not in the material
[12] = test system: Tbr mt-EF-Tu1 S381D (Trichinella britovi); conditions: 3'-aminoacylated with Phe (flexizyme); DRaCALA of EF-Tu:GTP:Phe-tRNA ternary complexes, 2 ul spotted on nitrocellulose, n>=3; binding buffer, pH and temperature not in the material
[13] = test system: Tbr mt-EF-Tu1 S381K (Trichinella britovi); conditions: 3'-aminoacylated with Phe (flexizyme); DRaCALA of EF-Tu:GTP:Phe-tRNA ternary complexes, 2 ul spotted on nitrocellulose, n>=3; binding buffer, pH and temperature not in the material
[14] = test system: Rcu mt-EF-Tu1 K380A (Romanomermis culicivorax); conditions: 3'-aminoacylated with Phe (flexizyme); DRaCALA of EF-Tu:GTP:Phe-tRNA ternary complexes, 2 ul spotted on nitrocellulose, n>=3; binding buffer, pH and temperature not in the material
[15] = test system: Rcu mt-EF-Tu1 ΔC18 (Romanomermis culicivorax); conditions: 3'-aminoacylated with Phe (flexizyme); DRaCALA of EF-Tu:GTP:Phe-tRNA ternary complexes, 2 ul spotted on nitrocellulose, n>=3; binding buffer, pH and temperature not in the material
[16] = test system: Tbr mt-EF-Tu1 (Trichinella britovi); conditions: 3'-aminoacylated with Phe (flexizyme); DRaCALA of EF-Tu:GTP:Phe-tRNA ternary complexes, 2 ul spotted on nitrocellulose, n>=3; binding buffer, pH and temperature not in the material
[17] = test system: Rcu mt-EF-Tu1 K380R (Romanomermis culicivorax); conditions: 3'-aminoacylated with Phe (flexizyme); DRaCALA of EF-Tu:GTP:Phe-tRNA ternary complexes, 2 ul spotted on nitrocellulose, n>=3; binding buffer, pH and temperature not in the material
[18] = target: Bta mt-EF-Tu D384K D384K (Bos taurus) (UniProt P49410); conditions: 3'-aminoacylated with Phe (flexizyme); DRaCALA of EF-Tu:GTP:Phe-tRNA ternary complexes, 2 ul spotted on nitrocellulose, n>=3; binding buffer, pH and temperature not in the material

Substance: AGUCAAAUAGCUUAACCUUAAAGCACAAAUCUUUUAAAUUUGAAGAUGUAUCCACUUUGACUACCA [Phe-mt-tRNALys (T-armless)]
- pKd [1]: 8.28

Substance: GCGGAUUUAGCUCAGUUGGGAGAGCGCCAGACUGAAGAUCUGGAGGUCCUGUGUUCGAUCCACAGAAUUCGCACCA [Phe-tRNAPhe (canonical)]
- pKd [1]: 7.65

Substance: Phe-mt-tRNAIle (armless)
- fold Kd increase vs wild type (fold Kd increase vs wt) [2]: 1.5
- fold Kd increase vs wild type (fold Kd increase vs wt) [3]: 14
- pKd [4]: 7.20
- pKd [5]: 6.46
- pKd [6]: 7.39
- pKd [7]: 7.15
- pKd [8]: 7.77
- pKd [9]: 6.83
- pKd [10]: 7.22
- pKd [11]: 6.65
- pKd [12]: 8.15
- pKd [13]: 8.52
- pKd [14]: 7.48
- fold Kd increase vs wild type (fold Kd increase vs wt) [15]: 8.7
- pKd [1]: 8.24
- pKd [16]: 8.36
- pKd [17]: 7.78
- pKd [18]: 7.01

Substance: Phe-mt-tRNASer(UCU) (D-armless)
- pKd [1]: 7.18
